Measurements reported in a protein production outcome set (Wang et al. 2014).

Experiment: label from the status in PepcDB records

| Sequence | protein production |
| --- | --- |
| MPLKSLKNRLNQHFDLSPRYGSVKKIMPNIVYADGFNPSVGDVVKIEKSDGSECVGMVVVAEKEQFGFTPFNFIEGARAGDKVLFLKEGLNFPVGRNLLGRVLNPLGQVIDNKGALDYERLAPVITTPIAPLKRGLIDEIFSVGVKSIDGLLTCGKGQKLGIFAGSGVGKSTLMGMITRGCLAPIKVIALIGERGREIPEFIEKNLKGDLSSCVLVVATSDDSPLMRKYGAFCAMSVAEYFKNQGLDVLFIMDSVTRFAMAQREIGLALGEPPTSKGYPPSALSLLPQLMERAGKEENKGSITAFFSVLVEGDDLSDPIADQTRSILDGHIVLSRELTDYGIYPPINILNSASRVAKDIISESQNLCARKFRRLYALLKENEMLIRIGSYQMGNDKELDEAIKKKALMEQFLAQDENALQPFETSFQQLEEILR | failed |
| MPLLQKRVIVSNKREKVINDRRSRQQTVTPAGSEMRYEASFRPENGGLEVVFRLDAPQYHALSVGDRGMLSYKGTAFVAFTPDPLEHHHHHH | not failed |
| MPLLYILAIVVIVIILILLGIIAANYKKSGPQAALIVYGSGLGSKGVNKDSQGNRLKVVRGSGTFVLPIFQNARYLSLQSAAIDIKTEKVLSKDKIPVTVEATAMIKVGSTLQDIATAAEQFLGKRDEQRDAMADQVLRGHLRAIVGTMTVSELIEDRNKFSAEVQGQAGTDLSKMGLSIVSFVINDIRDDQNYIKALGAKEVARVQQEAAIAVANADKETRIQKAAADQDAQKAEALAATQVANAQKEKAISLAHYEQEQSIAAAEAKAQADQAQASADQAYAIQEAISKKETTEAEMQVELIKKQRETDLETQEVLRKAQENEANVVKAAEAAKAAQIAKAEADAREREVRAQAEAAAIEATAKATAKQREVTAMAEATAIEATGKAEAEAIRLKGLAEAEAIDKKAEAMQKMNDAAKLNMALEILPEVVASVSSNLQAVDSINIYGGEGSSKILGMSQESLKQGLDVLGTMGIDVPDLLNNFSSRGNSNETLEKVEKIEE | failed |
| MPLPADPSPTLSAYAHPERLVTADWLSAHMGAPGLAIVESDEDVLLYDVGHIPGAVKIDWHTDLNDPRVRDYINGEQFAELMDRKGIARDDTVVIYGDKSNWWAAYALWVFTLFGHADVRLLNGGRDLWLAERRETTLDVPTKTCTGYPVVQRNDAPIRAFRDDVLAILGAQPLIDVRSPEEYTGKRTHMPDYPEEGALRAGHIPTAVHIPWGKAADESGRFRSREELERLYDFINPDDQTVVYCRIGERSSHTWFVLTHLLGKADVRNYDGSWTEWGNAVRVPIVAGEEPGVVPVV | not failed |
| MPLPRVSPVPLAGPGRRGEGGVSSAPLAGGPWAAGRRRLPGLLIIFRRVFTVGFWVGGVLAKKYPFLLGLDRVLELVTGFRGEAARRVLAGDEDLVGLGFRRAVAAVEGWLDYPFADTVEGEVASFYLGLAIAYRAGPAAVSRVVAGEYLRASRLLAGEPGEVASGILGGLGFPVERGGLSVPWVVDRRGVVMLPLGWRMGVDVFLRLSAADESSPELRLANQMLLSGSVYLSDARLRALASAASRLAIESRVSEAASLESEAVERYARHLAALAEGGLPFIPEALPQCIKNVFAKAVGGERLGWLELYLALVFLARIRAGPDAVEELLTPSLGERVARLLARVYSQAPPADHQLPPCEVLAASGVCRCRGSLLSEYRRSVRSLLGLPDRGAGRR | failed |
| MPLRSAGSGKASRDAVHHPLFARSYARISVTAETRLGMGGVRDRLLAGLSGRVIEIGAGNGLNFAHYPGAVSEVVAIEPERLLRQLAVEAALRCDVPVDVVPGAAEALPVKSEAFDAAVVSLVLCSVRDVSRALGELRRVLRPGGTLRFFEHGAGGGRAMAATQRALDRTVWPRLNGGCHLTRDAVSAVREAGFELGPYRRMLLPEKGPRLPTSYCVLGTAWRPGSAD | failed |
| MPLTIRPARFEELPAVQAIERLSARRFVGWIDALADDDPSPLERLAERSASGGLLVADVETGEGPKAAGFVMFRPMEDSLYIEQIDVAPAFERRRIGATLINAVADRAVALGLSRLTLSTFREIPWNAPYYRRLGFVDLDDEA | failed |
| MPLTPGTLLAGRYELLALLGEGGSAQVYRAQDGLLGREVALKVMHDYLPESDRSRFLREVRTLARLTHPGVVPVLDLGQEPEAGRPFFTMPLLTGGPITRLGPLEDAPGPLARFLTAAAFASRALHHVHSHGIVHRDLTPGNVLLDDTGLPRIMDFGLVALSEQTRHLTRSGVTLGTPAYMAPEQAKGGGVDARSDLYALGAVLYRVACGSPPFVGDSDQSVLYQHVYEPVPDPRDLNPAVPDAVARVLLWLLAKRADRRPQSGAALAHLWALARRDLWTTHARGQYRGGRARTGEHPDGPARVSDMQELWSVALPGEVTWPAAVVGEGDLVAVGTRGGQLVLTHTSGRPFATYAARDEVTAPATLIGGHVLYGAWDGTLRRVELQSGSEVWRHQARAEFTGAPTVWGGRLLAPSRDGHLHALSLRTGELAWAYRAGGSLAASPLVWAGAALQCDETGWLHALDARSGTPLWKVEVGTVHATPALLPGPPGTATLVIATWEGEVHAIGLEVQNGRAALAGEDAIRWTYDVEDEVWASPALTALDLPPDSGAAPDASAAPGGVVVVAGWGGKVRGLRLADGEDLWERTLDGRVTASPVISAGLVFLATEGGELLALDVRNGEVRWTCRERSGVQATPLAASGTLYVAFMDGTLRAYRNAHPEWRSEQEG | failed |
| MPLVHRSALPALCLSLILPWTFSVQAADPAPETKTPEEQPAQRQPLPERSQKDAAALERQLPALEQQQLQAGGDTFLALWKPANTSDPKGVVIILPGAGETADWPQAIAPLRNKLPDTEWASLSLTLPDMLSEAAQPRVVEAAPVPTDKANTAKDASTEAKPIEQVAGGEADVADRVVAESTEEQIKADAERIFTRVDAALAFAEQQNARSIVLLGHGTGAYWAARYLSEKQPAQVQKLVMVAAQSPANGKPQLAEITPTLKLATADFFYVDKPLAQKAALERLQASKRLKHSNFSQIPLKALPGNNTAQQEQLFRRVRGWLNPQNTDS | not failed |
| MPMGSLQPLATLYLLGMLVASCLGRLSWYDPDFQARLTRSNSKCQGQLEVYLKDGWHMVCSQSWGRSSKQWEDPSQASKVCQRLNCGVPLSLGPFLVTYTPQSSIICYGQLGSFSNCSHSRNDMCHSLGLTCLEPQKTTPPTTRPPPTTTPEPTAPPRLQLVAQSGGQHCAGVVEFYSGSLGGTISYEAQDKTQDLENFLCNNLQCGSFLKHLPETEAGRAQDPGEPREHQPLPIQWKIQNSSCTSLEHCFRKIKPQKSGRVLALLCSGFQPKVQSRLVGGSSICEGTVEVRQGAQWAALCDSSSARSSLRWEEVCREQQCGSVNSYRVLDAGDPTSRGLFCPHQKLSQCHELWERNSYCKKVFVTCQDPNPAGLAAGTVASIILALVLLVVLLVVCGPLAYKKLVKKFRQKKQRQWIGPTGMNQNMSFHRNHTATVRSHAENPTASHVDNEYSQPPRNSRLSAYPALEGVLHRSSMQPDNSSDSDYDLHGAQRL | failed |
| MPMNISNTKERILAVAEALIQKDGYNAFSFKDIATAINIKTASIHYHFPSKEDLGVAVISWHTDKIAAVLSDISNNSSLSAKEKIQKFFDAILTLTYNSENKMCLGGMFASDFQSLPVSIQNQAKKFFELIIEWLKGVLETNGYDNESSLSLAKQIISLVEGGLLLARLYGDETFLEGVRHFIDQTIK | not failed |
| MPMPMACWCRRSRCRWMAPADRSDRKPEGDAVTLKRWLSGGVLMVASLVATTHAAELPAGMQQFDVQMERVRKQFDVPGIAVAIVKDGQVVLERGYGVRETGKPAPVQADTLFAIASNTKAFTAASLSILADEGKLSLEDKVIDHLPWFRMSDPYVGGEMRIRDLLAHRSGLSLGAGDLLFWPTTSYTTEEVVQRLAKVPLKGGFRDRYAYDNILYAVAQKVIEQVSGQSYEAFLQQRIFAPVGMRGTRFNADHLQAGDHAAVGHAKYDFTELRTVAPLTWSNNSGAGGIYSSAHDMALWMNVQLAGGILPDGKPLFSAKRQHEMWSMITPIPIGEVQLPEFAAARPNFAGYGEGWSLSDYRGHRMVWHTGGWPGMVSRLTLLPDQKLGVVVLTNQEVGAAFNAVTFQVLDAFLRVPPTDWTAAYAKLVEKADSDADASWKKHQDARAARSTPSLPLRSYAATYRDPWYGDVVIVQDGKRLRLQFAKTAQLVGTLEHWQHDSFIVRWDDRSLNADAFVNFLLTPDGAVREMRMEPISPLTDFSFDFQDLVLTPVPTETAAGK | failed |
| MPMPSVRHDEHRPLSPAATLIGPARALEAVLAPGPGPGRPPGLPRPAPGTRRAMKWQQVQEGPSAVYVVVLDQGEDAVAELTAFARERSLGASQVTAVGAFSQAVVGWFDRQAKDYRHIPVREQCEVLSLIGDIAVADDGPTPHLHAVLGLSDGSTRGGHLLSGRVWPTLEVVVRDSPAELAKIHRPDIGLALIDPG | failed |
| MPMWLQALMWGTLAGGALVLGAGIAWMWKVPPKIVSTVMAFGAGVLISALAFELVDEAVEGGGLLPTVLGFLLGALIFVGSNALLARAGAKHRKRSGGSQPSEKDSPGSGTAIAVGALIDGIPESVVLGVGLLAGGAVSPAMLAAVLISNVPEGLSSTAGMKKAGRSPAYVFGTWIGIAVFSGLAALLGYTALENAPETVIAFITAIAAGGILAMLADTMIPEAFEEHHNLTGLTAAVGFLSAFTIHHVGG | failed |
| MPMYQETSEPSLQALESRQDDILKRLYELKAAVDGLSKMIHTPDADLDVTNILQADEPTTLATNTLDLNSVLGKDYGALKDIVINANPASPPLSLLVLHRLLCERYRVLSTVHTHSSVKNVPENLVKCFGEQARKQSRHEYQLGFTLIWKNVPKTQMKFSVQTMCPIEGEGNIARFLFSLFGQKHNAVTLTLIDSWVDIAMFQLREGSSKEKAAVFRSMNSALGRSPWLVGNELTVADVVLWSVLQQTGGSSGAAPTNVQRWLKSCENLAPFSTALQLLK | failed |
| MPNFSKNEEVLFSAVNEIFEEKIPFNKIIGLKVRFISPEQVKLSFEMRDELIGNAIRRMLYGGVISSAIDMTAGLAAFMGFQEKMSGKPMEEKLAMIGRLSTMSLHVEYLRPGLGREFVCTGYNVRTGNKVAVIRTELMNDQDELIAVGSVSYILV | not failed |
| MPNQPVTVESFMPVEGKLREKVIVKGSNFGTDKSKVKVYFVDEAAERLSTVIGIDNNTLYCLAPRQLPGGNRIKVIVDGKEVTTDGTFKYEQAQNVSTISGSASKDGNDDGDLASAKFKYMWGIAAVGNNTVLAYQRDDPRVRLISVDDNKVTTVHPGFKGGKPAVTKDKQRVYSIGWEGTHTVYVYMKASGWAPTRIGQLGSTFSGKIGAVALDETEEWLYFVDSNKNFGRFNVKTQEVTLIKQLELSGSLGTNPGPYLIYYFVDSNFYMSDQNLSSVYKITPDGECEWFCGSATQKTVQDGLREEALFAQPNGMTVDEDGNFYIVDGFKGYCLRKLDILDGYVSTVAGQVDVASQIDGTPLEATFNYPYDICYDGEGGYWIAEAWGKAIRKYAVELEHHHHHH | not failed |
